The source of these data is US20080057055A1, “OLD-35 as an inflammatory agent” (priority 2004, published 2008).

The test system of series [1] is IL-6. Nature of the series: Human IL-6 ELISA in culture supernatants. Conditions: HeLa, Ad.hPNPase 50 pfu/cell; plus 20 mM NAC. In kind it is cell-based. The source says:
(§1) Human IL-6 and IL-8 ELISA. The levels of IL-6 and IL-8 were quantified by ELISA in culture supernatants using human IL-6 ELISA kit (Pierce Biotechnology, Rockford, Ill.) and human IL-8 ELISA kit (Pierce), respectively, according to the manufacturer's protocol.

Series [2] relates to HeLa cells. The experiment in a line: Monitoring ROS production by flow cytometry (HE and DCFH-DA staining). As to conditions: Ad.hPNPase 50 pfu/cell, plus 20 mM NAC. In kind it is cell-based, human. The protocol:
Cell Lines, Reagents and Virus Infection protocol. The human cervical carcinoma cell line HeLa was cultured in Dulbecco's Modified Eagle Medium (DMEM) supplemented with 10% fetal calf serum, penicillin (50 units/ml) and streptomycin (50 μg/ml) at 37° C. in 5% CO2 and 100% relative humidity. N-acetyl-L-cysteine and Tiron were obtained from Sigma (St. Louis, Mo.). The recombinant replication-incompetent adenovirus expressing old-35 (Ad.hPNPase) was created in two steps as described previously and plaque purified by standard procedures (1, 28). Cells were infected with a multiplicity of infection (m.o.i.) of 1 to 50 plaque forming units (pfu)/cell of Ad.vec (control replication-incompetent adenovirus) or Ad.hPNPase as described (29).
Monitoring ROS Production. Cells were stained with 2.5 μM hydroethidine (HE) and 5 μM 5,6-carboxy-2′,7′-dichlorofluorescein diacetate (DCFH-DA) in PBS for 30 min in the dark (32). Immediately after staining the cells were analyzed by flow cytometry (FACScan; Becton Dickinson, Mountain View, Calif.) and data were analyzed using CellQuest software, version 3.1 (Becton Dickinson). The cells were gated to exclude cell debris.

The test system of series [3] is IκBα, p65. The experiment in a line: Western blot of cytoplasmic and nuclear extracts. In kind it is cell-based, human. As to conditions: 20 mM NAC, 2 days post-infection. The procedure: Cell Fractionation. Cells were harvested and the cytoplasm and nucleus were fractionated by the modified Schreiber's method as described (31). Briefly, the cells were washed with PBS and lysed for 10 min in Buffer A (10 mM HEPES pH 7.9, 10 mM KCl, 1.5 mM MgCl2, 1 mM EDTA, 1 mM dithiothreitol, 0.1% Nonidet P-40) containing protease inhibitor cocktail (Roche, Mannheim, Germany). After centrifugation, the supernatant was saved as the cytoplasmic fraction and the pellet containing nuclei was lysed in Buffer B (20 mM HEPES pH 7.9, 400 mM KCl, 20% glycerol, 1 mM EDTA, 1 mM DTT) containing protease inhibitor cocktail (Roche) with one freeze-thaw cycle. After centrifugation the supernatant was collected as the nuclear fraction. Protein concentration was determined by Bio-Rad protein assay kit (Bio-Rad laboratories, Hercules, Calif.).
Preparation of Whole Cell Lysates and Western Blot Analysis. Whole cell lysates were prepared and Western blotting was performed as described (4). Briefly, cells were harvested in RIPA buffer containing protease inhibitor cocktail (Roche, Mannheim, Germany), 1 mM Na3VO4 and 50 mM NaF and centrifuged at 12,000 rpm for 10 min at 4° C. The supernatant was used as total cell lysate. Thirty μg of total cell lysate were used for SDS-PAGE and transferred to a nitrocellulose membrane. […]

In series [4] the test system is IL-8. Nature of the series: Human IL-8 ELISA in culture supernatants. In kind it is cell-based. Conditions: HeLa, Ad.hPNPase 50 pfu/cell; plus 20 mM NAC.
From the text: as §1

Series [5] concerns the target NF-κB p65 subunit (RelA) (human, UniProt Q04206 1-551). Nature of the series: complex composition inferred from EMSA supershift.
Series [6] has as its system c-myc mRNA. Nature of the series: In vitro mRNA degradation assay with in vitro translated proteins. In kind it is biochemical, human. Conditions: in vitro translated protein incubated with HO-1 total RNA for 0.5 and 2 h. The protocol: In vitro Translation and in vitro mRNA Degradation Assays: In vitro translation was performed using the TNT coupled Reticulocyte Lysate Systems (Promega) using the plasmids pcDNA3.1+(Hygro) as a control, GADD153 expression plasmid, phPNPase^old-35, pΔRPH1, pΔRPH2, pΔRPH1+2 and pΔC-term according to the manufacturer's protocol. Five […] of total RNA from HO-1 cells were incubated with 5 μl of each in vitro translated protein at 37° C. from 0.5 to 2 h. The RNA was repurified using the Qiagen RNeasy mini kit (Qiagen) and Northern blotting was performed.

Series [7] deals with the molecule itself. The experiment in a line: self-association inferred from anti-HA Western blot of fractionated HO-1 cells.

Chain of NF-κB p65 subunit (RelA) (Q04206 whole entry): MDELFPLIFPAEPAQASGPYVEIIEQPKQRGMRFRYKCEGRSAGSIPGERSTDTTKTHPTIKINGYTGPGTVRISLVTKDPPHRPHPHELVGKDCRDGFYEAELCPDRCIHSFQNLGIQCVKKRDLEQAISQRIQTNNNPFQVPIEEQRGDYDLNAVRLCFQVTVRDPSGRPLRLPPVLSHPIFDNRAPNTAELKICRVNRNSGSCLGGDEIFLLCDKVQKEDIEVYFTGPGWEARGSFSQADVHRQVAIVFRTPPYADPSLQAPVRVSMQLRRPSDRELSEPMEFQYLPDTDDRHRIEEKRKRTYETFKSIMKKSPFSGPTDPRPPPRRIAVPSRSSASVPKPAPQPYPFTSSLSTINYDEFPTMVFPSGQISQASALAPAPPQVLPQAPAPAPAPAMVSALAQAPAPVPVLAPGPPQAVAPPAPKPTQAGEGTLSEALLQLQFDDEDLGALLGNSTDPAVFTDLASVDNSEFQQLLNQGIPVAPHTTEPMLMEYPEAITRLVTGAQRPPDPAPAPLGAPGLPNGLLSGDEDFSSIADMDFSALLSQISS

As to `CC(=O)N[C@@H](CS)C(=O)O` [NAC, N-acetyl-L-cysteine], the “secreted IL-6 in culture supernatant” value in series [1] is listed as “markedly inhibited”. In addition, the “percentage of high ROS containing cells” value is recorded as about 2% in series [2] (24 hr) and about 3% in series [2] (36 hr). For the same molecule, the “degradation of IκBα and nuclear translocation of p65 by Ad.hPNPase^old-35 infection” value in series [3] is given as “inhibited”. Also, in series [4], the “secreted IL-8 in culture supernatant” value is on record as “markedly inhibited”.

B1: NF-κB p50 subunit (other, human, UniProt P19838 1-433, looked up)
chain: MAEDDPYLGRPEQMFHLDPSLTHTIFNPEVFQPQMALPTDGPYLQILEQPKQRGFRFRYVCEGPSHGGLPGASSEKNKKSYPQVKICNYVGPAKVIVQLVTNGKNIHLHAHSLVGKHCEDGICTVTAGPKDMVVGFANLGILHVTKKKVFETLEARMTEACIRGYNPGLLVHPDLAYLQAEGGGDRQLGDREKELIRQAALQQTKEMDLSVVRLMFTAFLPDSTGSFTRRLEPVVSDAIYDSKAPNASNLKIVRMDRTAGCVTGGEEIYLLCDKVQKDDIQIRFYEEEENGGVWEGFGDFSPTDVHRQFAIVFKTPKYKDINITKPASVFVQLRRKSDLETSEPKPFLYYPEIKDKEEVQRKRQKLMPNFSDSFGGGSGAGAGGGGMFGSGGGGGGTGSTGPGYSFPHYGFPTYGGITFHPGTTKSNAGMKHG
notes: also called NF-κB1 (p50/p105)
With B1, the binding result in series [5] was “binds”.

B2: pGADD153: unrelated plasmid that expresses a transcription factor (protein, UniProt P35638 1-169, looked up)
DNA damage-inducible …: MAAESLPFSFGTLSSWELEAWYEDLQEVLSSDENGGTYVSPPGNEEEESKIFTTLDPASLAWLTEEEPEPAEVTSTSQSPHSPDSSQSSLAQEEEEEDQGRTRKRKQSGHSPARAGKQRMKEKEQENERKVAQLAEENERLKQEIERLTREVEATRRALIDRMVNLHQA
modifications: expressed from plasmid
notes: unrelated plasmid that expresses a transcription factor
For the molecule B2, in series [6], the “degradation of c-myc mRNA” value is “No degradation”.

B3: ΔRPH1 deletion mutant of hPNPase^OLD-35 (a.a. 183-783) with C-terminal HA tag (enzyme)
chain: PWNGPVGAVRIGIIDGEYVVNPTRKEMSSSTLNLVVAGAPKSQIVMLEASAENILQQDFCHAIKVGVKYTQQIIQGIQQLVKETGVTKRTPQKLFTPSPEIVKYTHKLAMERLYAVFTDYEHDKVSRDEAVNKIRLDTEEQLKEKFPEADPYEIIESFNVVAKEVFRSIVLNEYKRCDGRDLTSLRNVSCEVDMFKTLHGSALFQRGQTQVLCTVTFDSLESGIKSDQVITAINGIKDKNFMLHYEFPPYATNEIGKVTGLNRRELGHGALAEKALYPVIPRDFPFTIRVTSEVLESNGSSSMASACGGSLALMDSGVPISSAVAGVAIGLVTKTDPEKGEIEDYRLLTDILGIEDYNGDMDFKIAGTNKGITALQADIKLPGIPIKIVMEAIQQASVAKKEILQIMNKTISKPRASRKENGPVVETVQVPLSKRAKFVGPGGYNLKKLQAETGVTISQVDEETFSVFAPTPSVMHEARDFITEICKDDQEQQLEFGAVYTATITEIRDTGVMVKLYPNMTAVLLHNTQLDQRKIKHPTALGLEVGQEIQVKYFGRDPADGRMRLSRKVLQSPATTVVRTLNDRSSIVMGEPISQSSSNSQYPYDVPDYA
notes: also called Ad.ΔRPH1; pΔRPH1
As to B3, the binding result in series [7] is recorded as “no binding”. Besides, the “degradation of c-myc mRNA” value in series [6] was “significant degradation”.

B4: ΔRPH2 deletion mutant of hPNPase^OLD-35 (a.a. 1-202 and 496-783) with C-terminal HA tag (enzyme)
chain: MAACRYCCSCLRLRPLSDGPFLLPRRDRALTQLQVRALWSSAGSRAVAVDLGNRKLEISSGKLARFADGSAVVQSGDTAVMVTAVSKTKPSPSQFMPLVVDYRQKAAAAGRIPTNYLRREVGTSDKEILTSRIIDRSIRPLFPAGYFYDTQVLCNLLAVDGVNEPDVLAINGASVALSLSDIPWNGPVGAVRIGIIDGEYVVMDSGVPISSAVAGVAIGLVTKTDPEKGEIEDYRLLTDILGIEDYNGDMDFKIAGTNKGITALQADIKLPGIPIKIVMEAIQQASVAKKEILQIMNKTISKPRASRKENGPVVETVQVPLSKRAKFVGPGGYNLKKLQAETGVTISQVDEETFSVFAPTPSVMHEARDFITEICKDDQEQQLEFGAVYTATITEIRDTGVMVKLYPNMTAVLLHNTQLDQRKIKHPTALGLEVGQEIQVKYFGRDPADGRMRLSRKVLQSPATTVVRTLNDRSSIVMGEPISQSSSNSQYPYDVPDYA
notes: The two fragments were joined at an HpaI site; also called Ad.ΔRPH2; pΔRPH2
Regarding B4, the binding result in series [7] was “no binding”. Besides, the “degradation of c-myc mRNA” value in series [6] is given as “significant degradation”.

B5: phPNPase^old-35: plasmid expressing full-length HA-tagged hPNPase^OLD-35 protein, in vitro translated for RNA degradation assays (protein, UniProt Q8TCS8 1-783, looked up)
chain: MAACRYCCSCLRLRPLSDGPFLLPRRDRALTQLQVRALWSSAGSRAVAVDLGNRKLEISSGKLARFADGSAVVQSGDTAVMVTAVSKTKPSPSQFMPLVVDYRQKAAAAGRIPTNYLRREIGTSDKEILTSRIIDRSIRPLFPAGYFYDTQVLCNLLAVDGVNEPDVLAINGASVALSLSDIPWNGPVGAVRIGIIDGEYVVNPTRKEMSSSTLNLVVAGAPKSQIVMLEASAENILQQDFCHAIKVGVKYTQQIIQGIQQLVKETGVTKRTPQKLFTPSPEIVKYTHKLAMERLYAVFTDYEHDKVSRDEAVNKIRLDTEEQLKEKFPEADPYEIIESFNVVAKEVFRSIVLNEYKRCDGRDLTSLRNVSCEVDMFKTLHGSALFQRGQTQVLCTVTFDSLESGIKSDQVITAINGIKDKNFMLHYEFPPYATNEIGKVTGLNRRELGHGALAEKALYPVIPRDFPFTIRVTSEVLESNGSSSMASACGGSLALMDSGVPISSAVAGVAIGLVTKTDPEKGEIEDYRLLTDILGIEDYNGDMDFKIAGTNKGITALQADIKLPGIPIKIVMEAIQQASVAKKEILQIMNKTISKPRASRKENGPVVETVQVPLSKRAKFVGPGGYNLKKLQAETGVTISQVDEETFSVFAPTPSAMHEARDFITEICKDDQEQQLEFGAVYTATITEIRDTGVMVKLYPNMTAVLLHNTQLDQRKIKHPTALGLEVGQEIQVKYFGRDPADGRMRLSRKVLQSPATTVVRTLNDRSSIVMGEPISQSSSNSQ
modifications: full-length HA tag
notes: plasmid expressing full-length HA-tagged hPNPase^OLD-35 protein, in vitro translated for RNA degradation assays
As for B5, the “degradation of c-myc mRNA” value in series [6] is reported as “significant degradation”.

B6: ΔC-term deletion mutant of hPNPase^OLD-35 (a.a. 1-507) with C-terminal HA tag (enzyme)
chain: MAACRYCCSCLRLRPLSDGPFLLPRRDRALTQLQVRALWSSAGSRAVAVDLGNRKLEISSGKLARFADGSAVVQSGDTAVMVTAVSKTKPSPSQFMPLVVDYRQKAAAAGRIPTNYLRREVGTSDKEILTSRIIDRSIRPLFPAGYFYDTQVLCNLLAVDGVNEPDVLAINGASVALSLSDIPWNGPVGAVRIGIIDGEYVVNPTRKEMSSSTLNLVVAGAPKSQIVMLEASAENILQQDFCHAIKVGVKYTQQIIQGIQQLVKETGVTKRTPQKLFTPSPEIVKYTHKLAMERLYAVFTDYEHDKVSRDEAVNKIRLDTEEQLKEKFPEADPYEIIESFNVVAKEVFRSIVLNEYKRCDGRDLTSLRNVSCEVDMFKTLHGSALFQRGQTQVLCTVTFDSLESGIKSDQVITAINGIKDKNFMLHYEFPPYATNEIGKVTGLNRRELGHGALAEKALYPVIPRDFPFTIRVTSEVLESNGSSSMASACGGSLALMDSGVPISSAVAYPYDVPDYA
notes: also called Ad.ΔC-term; pΔC-term
With B6, the binding result in series [7] is on record as “no binding”. Moreover, the “degradation of c-myc mRNA” value in series [6] is on record as “significant degradation”.

B7: pΔRPH1+2: plasmid for ΔRPH1+2 deletion mutant, in vitro translated protein of 31 kDa (protein)
chain: MDSGVPISSAVAGVAIGLVTKTDPEKGEIEDYRLLTDILGIEDYNGDMDFKIAGTNKGITALQADIKLPGIPIKIVMEAIQQASVAKKEILQIMNKTISKPRASRKENGPVVETVQVPLSKRAKFVGPGGYNLKKLQAETGVTISQVDEETFSVFAPTPSVMHEARDFITEICKDDQEQQLEFGAVYTATITEIRDTGVMVKLYPNMTAVLLHNTQLDQRKIKHPTALGLEVGQEIQVKYFGRDPADGRMRLSRKVLQSPATTVVRTLNDRSSIVMGEPISQSSSNSQYPYDVPDYA
With B7, in series [6], the “degradation of c-myc mRNA” value is listed as “No degradation”.
